“Also recorded” adds a separate entry of the source. Where two headings read alike, the source gives them in different places.
B1: alpha-amylase: salivary protein tested for effect on alpha-glucosidase (protein, UniProt P0DUB6 16-511, looked up)
Alpha-amylase 1A: QYSSNTQQGRTSIVHLFEWRWVDIALECERYLAPKGFGGVQVSPPNENVAIHNPFRPWWERYQPVSYKLCTRSGNEDEFRNMVTRCNNVGVRIYVDAVINHMCGNAVSAGTSSTCGSYFNPGSRDFPAVPYSGWDFNDGKCKTGSGDIENYNDATQVRDCRLSGLLDLALGKDYVRSKIAEYMNHLIDIGVAGFRIDASKHMWPGDIKAILDKLHNLNSNWFPEGSKPFIYQEVIDLGGEPIKSSDYFGNGRVTEFKYGAKLGTVIRKWNGEKMSYLKNWGEGWGFMPSDRALVFVDNHDNQRGHGAGGASILTFWDARLYKMAVGFMLAHPYGFTRVMSSYRWPRYFENGKDVNDWVGPPNDNGVTKEVTINPDTTCGNDWVCEHRWRQIRNMVNFRNVVDGQPFTNWYDNGSNQVAFGRGNRGFIVFNNDDWTFSLTLQTGLPAGTYCDVISGDKINGNCTGIKIYVSDDGKAHFSISNSAEDPFIAIHAESKL
B2: CON-1: basic salivary proline-rich glycoprotein which binds concanavalin A, 124 amino acids, large form (protein)
chain: SPPGKPQGPPPQGGNQPQGPPPPPGKPQGPPPQGGNKPQGPPPPGKPQGPPPQGDNKSQSARSPPGKPQGPPPQGGNQPQGPPPPPGKPQGPPPQGGNKSQGPPPPGKPQGPPPQGGSKSRSSR
modifications: glycoprotein; glycosylation occurs at one N-linked site (acetylglucosamine on asparagine of glycine-glycine-asparagine-lysine)
B3: CON-2: small form analog of CON-1, salivary glycoprotein of 82 amino acids (protein)
chain: SPPGKPQGPPPQGGNQPQGPPPPPGKPQGPPPQGGNKPQGPPPPGKPQGPPPQGGNKSQGPPPPGKPQGPPPQGGSKSRSSR

What was measured:
yeast alpha-glucosidase = yeast alpha-glucosidase (Saccharomyces cerevisiae, UniProt P53341); format: biochemical; details: for inhibitory effect on alpha-glucosidase activity (in words): 0.02 units of yeast alpha-glucosidase; for Specific Inhibitory Activity: decrease of 1 umole of glucose production from maltose per microgram of salivary protein per hour, stages of CON-1 purification; for change of inhibitory activity after removal of acetylglucosamine (in words): incubation with N-acetylglucosaminidase
Sequence of yeast alpha-glucosidase (P53341 whole entry): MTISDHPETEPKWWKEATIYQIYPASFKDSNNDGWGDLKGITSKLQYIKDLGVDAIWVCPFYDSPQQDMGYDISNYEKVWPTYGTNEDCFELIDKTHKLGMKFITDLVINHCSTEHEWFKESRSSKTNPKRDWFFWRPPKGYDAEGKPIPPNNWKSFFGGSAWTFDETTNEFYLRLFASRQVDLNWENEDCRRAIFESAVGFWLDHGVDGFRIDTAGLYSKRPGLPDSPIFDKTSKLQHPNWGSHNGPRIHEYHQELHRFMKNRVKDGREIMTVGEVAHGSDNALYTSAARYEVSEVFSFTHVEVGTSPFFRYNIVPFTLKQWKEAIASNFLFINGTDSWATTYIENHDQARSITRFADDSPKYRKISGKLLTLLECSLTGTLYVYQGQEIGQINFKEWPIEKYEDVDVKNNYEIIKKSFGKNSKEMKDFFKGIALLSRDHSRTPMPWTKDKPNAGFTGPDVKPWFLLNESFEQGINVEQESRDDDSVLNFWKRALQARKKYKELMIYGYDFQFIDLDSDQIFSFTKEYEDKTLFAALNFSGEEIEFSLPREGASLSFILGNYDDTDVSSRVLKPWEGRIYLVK
Method: The enzyme of alpha-glucosidase activity is according to the procedure as described by Sigma Chemical Company, St. Louis, Mo. Routinely, the enzyme reaction mixture contains 10 mM maltose and 50 ul of purified alpha-glucosidase or 0.02 units of yeast alpha-glucosidase in a final volume of 60 ul of 25 mM sodium acetate buffer, pH 5.6. The reaction mixture is incubated at 37° C. for 60 minutes, and the production of glucose is determined by the glucose oxidase reagent (Worthington Statzyme Glucose 500) in accordance with recommendation of Worthington Biochemical Corporation.

[1] = format: physicochemical
Excerpt: The crude preparation (either cell lysate, whole saliva, or parotid exudate) is collected at subzero temperatures, preferably into a dry-ice chilled container. The preparation is then heated to a temperature between 75 and 100 degrees Centigrade, for a period sufficient to cause denaturation of proteases. At lower temperatures, the time of exposure to heat may be increased up to one hour. Best results are obtained by heating an aliquot of the crude preparation in boiling water from 2 to about 10 minutes. Precipitated protein is then removed by centrifugation followed by an alcohol precipitation. The alcohol may be isopropyl, methyl, or ethyl, ethyl being preferred because of its nontoxic or USP properties. Alcohol precipitation is generally carried out overnight at 4 to 15 degrees.
In conventional purification strategies, the protein was either degraded too rapidly to remove contaminating proteases, or the protein is inherently unstable in the presence of alterative materials. Among those techniques attempted in purifying CON-1 and CON-2 are the following: Sephadex gel filtration, DEAE cation and anion exchange chromatography, preparative gradient SDS-gel electrophoresis, solvent precipitation in an initial step (methanol, propanol, isopropanol, butanol acetone, and phenol), concanavalin A affinity column chromatography, and blue dye gel affinity column chromatography. […]

invertase = assay: Enzyme assay of invertase in the presence of CON-1; format: biochemical; details: same concentration as for alpha-glucosidase
Method: The enzyme reaction was incubated with 5 mM sucrose as substrate in 50 mM acetate buffer pH 5.0 at 37° C. for 60 minutes. The production of glucose was determined as described in "Enzyme Assay of Alpha-Glucosidase Activity".

CEM×179 cells = format: cell-based
Method: T cell proliferation assay: CEM×179 cells (2×10^5/well in 200 ul of complete medium) were cultured during 6 days at 37° C. in flat-bottomed microtiter wells, and T cell proliferation was evaluated following a 6 hr pulse of (3H)-thymidine (0.5 uCi/well) (Amersham, Bucks, England). Cultures were harvested (Skatron Instruments, Lier, Norway) and the radioactivity was measured using a beta-counter (Packard Gamma 5500).

beta-amylase = assay: Enzyme assay of beta-amylase activity in the presence of CON-1; format: biochemical; details: same concentration as for alpha-glucosidase
Method: (§1) The enzyme reactions of alpha- and beta-amylases contained 2 mg of phytoglycogen as substrate in 0.05 M sodium acetate buffer, pH 5.4; and were incubated at 37° C. for 60 minutes. The liberation of reducing sugar from phytoglycogen was measured by the reduction of 3,5-nitrosalicyclic acid as described by Bernfeld, Methods Enzymol. 1:149-158 (1955).

HIV-1 = details: CEMx174 cells
Method: To test whether the alpha-glucosidase inhibitor activity of CON-1 could also intervene in HIV adsorption to target cells, thereby reducing infectivity and production of viral proteins, the following experiment was carried out: CEMx174 cells, as described by Hoxie, et al., J. Virol., 62: 2557 (1988), were infected at a concentration of 500,000 cells per ml for 2 hours at 37 degrees Centigrade with cell-free HIV-1, isolated as described in Alizon, et al., Nature, 312: 757 (1984), by adding virus at a concentration of 300 ng of HIV p24 protein per ml. Components of complete medium: RPMI 1640 with 10% fetal bovin serum, 2 mM L-glutamine, penicillin at 100 units/ml, and streptomycin at 100 ug/ml) with phytohemagglutin (PHA, 1 ug/ml; Sigma). After the 2 hour incubation, the virus inoculum was washed off and the cells were resuspended in complete culture medium containing various amounts of CON-1 protein. The cells were incubated in 96-well microtiter plates (5×10^4 cells in 200 ul per well), and cell-free supernatants were collected 72 hours after infection.
The amount of HIV p24 in the cell-free supernatant was determined with a commercially available ELISA kit (Coulter) according to the manufacture's instructions. The HCEM cell line described in Pauza, et al. J. Virol., 63:3700 (1989) was used to assess the effect of CON-1 on HIV production from chronically infected cells. HCEM cells were pretreated with CON-1 at 10 ug/ml for 4 hours, washed twice with phosphate-buffered saline and then incubated at 10^6 cells per ml in complete medium in the presence of CON-1 at 10 ug/ml, respectively. After 48 hours, cell-free supernatants were collected to determine HIV p24 levels by ELISA.

glucoamylase = details: same concentration as for alpha-glucosidase
alpha-amylase = assay: Enzyme assay of alpha-amylase activity in the presence of CON-1; format: biochemical; details: same concentration as for alpha-glucosidase
Method: as §1

debranching enzyme = assay: Enzyme assay of debranching enzyme in the presence of CON-1; format: biochemical; details: same concentration as for alpha-glucosidase
Method: Debranching enzyme activity was determined according to the method of Lee, et al. Arch. Biochem. Biophys., 143:315-374 (1971). The reaction mixture contains 2 mg of pullulan, 100 mM sodium citrate buffer (pH 7.0), and incubated at 37° C. for 60 minutes. The reducing sugar produced from phytoglycogen was determined according to the method of Bernfeld, Methods Enzymol. 1:149-158 (1955).

[2] = supernatant 72 hours after infection (FIG. 9)

Row | Molecule | inhibitory effect on alpha-glucosidase activity (in words) (yeast alpha-glucosidase) | stability to denaturing conditions (in words) [1] | inhibitory effect on invertase (in words) (invertase) | amount of protein showing no toxic effect on the cell line (CEM×179 cells) | inhibitory effect on beta-amylase (in words) (beta-amylase) | inhibitory activity lost after deglycosylation (yeast alpha-glucosidase; CON-1 treated with PNGase versus native glycosylated CON-1 (FIG. 8)) | Specific Inhibitory Activity (yeast alpha-glucosidase) | Specific Inhibitory Activity (yeast alpha-glucosidase; listed as SDS Gel Electrophoresis Slice) | change of inhibitory activity after removal of acetylglucosamine (in words) (yeast alpha-glucosidase) | concentration at which significant inhibition of p24 production first occurs (HIV-1; [2]) [µg/mL] | concentrations showing marked inhibition of p24 production (HIV-1; [2]) | effect on HIV p24 production (in words) (HIV-1; up to 20 ug/ml) | inhibitory effect on glucoamylase (in words) (glucoamylase) | inhibitory effect on alpha-amylase (in words) (alpha-amylase) | inhibitory effect on debranching enzyme (in words) (debranching enzyme)
1 | B1 | significantly enhance enzyme activity |  |  |  |  |  |  |  |  |  |  |  |  |  | 
2 | B2 | inhibition of essentially all enzyme activity; also recorded: completely inhibited the enzyme; also recorded: nearly complete | extreme stability to denaturing conditions | None of the other enzymes is significantly affected; also recorded: essentially no inhibitory effect | up to 50 ug/assay | None of the other enzymes is significantly affected; also recorded: essentially no inhibitory effect | about 50% | about 2810 | 2810.0 | marked reduction in inhibitory activity | 2.5 | above 1.25 ug/ml | profound reductions in signal markers of viral replication | essentially no inhibitory effect | None of the other enzymes is significantly affected; also recorded: essentially no inhibitory effect | None of the other enzymes is significantly affected; also recorded: essentially no inhibitory effect
3 | B3 | nearly complete | extreme stability to denaturing conditions | essentially no inhibitory effect |  | essentially no inhibitory effect |  |  |  | marked reduction in inhibitory activity |  |  |  | essentially no inhibitory effect | essentially no inhibitory effect | essentially no inhibitory effect

— patent US5981720A, “Human salivary proteins and fragments thereof having alpha-glucosidase inhibitory activity” (priority 1997, dated 1999)
